T1: Human Tissue Factor (human)
T1 chain: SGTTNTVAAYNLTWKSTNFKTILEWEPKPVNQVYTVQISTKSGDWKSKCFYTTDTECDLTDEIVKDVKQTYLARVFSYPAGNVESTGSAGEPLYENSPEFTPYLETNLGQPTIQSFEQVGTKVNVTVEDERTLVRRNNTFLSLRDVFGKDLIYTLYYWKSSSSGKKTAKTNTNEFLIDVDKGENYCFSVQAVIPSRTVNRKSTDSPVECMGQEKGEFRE

T2: Mouse Tissue Factor (mouse)
T2 chain: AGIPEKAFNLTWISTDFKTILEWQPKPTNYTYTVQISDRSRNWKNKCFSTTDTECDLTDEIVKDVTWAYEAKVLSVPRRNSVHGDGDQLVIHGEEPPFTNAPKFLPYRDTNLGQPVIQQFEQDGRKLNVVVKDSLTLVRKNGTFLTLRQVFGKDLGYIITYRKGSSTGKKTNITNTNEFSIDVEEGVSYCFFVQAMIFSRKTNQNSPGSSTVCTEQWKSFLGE

T3: Cynomolgus Tissue Factor (cynomolgus)
T3 chain: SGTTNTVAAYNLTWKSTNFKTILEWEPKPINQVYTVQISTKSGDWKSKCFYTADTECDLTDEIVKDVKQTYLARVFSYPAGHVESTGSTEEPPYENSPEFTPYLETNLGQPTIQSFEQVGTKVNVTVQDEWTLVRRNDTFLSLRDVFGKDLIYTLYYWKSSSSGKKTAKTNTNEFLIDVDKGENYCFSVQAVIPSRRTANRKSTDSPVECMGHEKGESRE

B1: TF-ADC 6-8 (antibody)
chain 1: not shown
chain 2: DIQMTQSPSTLSASVGDRVTITCQASQSINNWLAWYQQKPGKAPKLLIYKAYNLESGVPSRFSGSGSGTEFTLTISSLQPDDFATYYCQLFQSLPPFTFGGGTKVEIKRTVAAPSVFIFPPSDEQLKSGTASVVCLLNNFYPREAKVQWKVDNALQSGNSQESVTEQDSKDSTYSLSSTLTLSKADYEKHKVYACEVTHQGLSSPVTKSFNRGEC
modifications: ADC, linker-payload conjugated at fGly' in CH1 and C-terminus, DAR about 8
B2: EXMA-006 (antibody)
chain 1: QVQLVQSGAEVKKPGASVKVSCKASGYTFDVYGISWVRQAPGQGLEWMGWIAPYSGNTNYAQKLQGRVTMTTDTSTSTAYMELRSLRSDDTAVYYCARDAGTYSPFGYGMDVWGQGTTVTVSS
chain 2: DIQMTQSPSTLSASVGDRVTITCQASQSINNWLAWYQQKPGKAPKLLIYKAYNLESGVPSRFSGSGSGTEFTLTISSLQPDDFATYYCQLFQSLPPFTFGGGTKVEIK
modifications: unconjugated TF antibody; representative batches 1 and 2

How the values were obtained:
[1] = target: T1, Human Tissue Factor; experiment: BLI
[2] = target: T2, Mouse Tissue Factor; experiment: BLI
[3] = target: T3, Cynomolgus Tissue Factor; experiment: BLI
[4] = target: T3, Cynomolgus Tissue Factor; experiment: BLI, batch 1
[5] = target: T2, Mouse Tissue Factor; experiment: BLI, batch 1
[6] = target: T3, Cynomolgus Tissue Factor; experiment: BLI, batch 2
[7] = target: T2, Mouse Tissue Factor; experiment: BLI, batch 2
[8] = target: T1, Human Tissue Factor; experiment: BLI, batch 1
[9] = target: T1, Human Tissue Factor; experiment: BLI, batch 2

Binder	Kd [1] [µM]	Kd [2] [µM]	Kd [3] [µM]	Kd [4] [µM]	Kd [5] [µM]	Kd [6] [µM]	Kd [7] [µM]	Kd [8] [µM]	Kd [9] [µM]
B1	7.1	210	19						
B2				0.000673	0.107	240	2000	0.00113	36
